Measurements as given in patent publication US20140161798A1 (Merck Sharp & Dohme, published 2014).

How the values were obtained:
[1] = target: bacu-PCSK9-WT (UniProt Q8NBP7); experiment: cell-based or functional assay
[2] = target: Purified PCSK9 carrying a C-terminal FLAG tag (UniProt Q8NBP7); experiment: AlphaScreen PCSK9-FLAG/His-LDLR; log[antibody] ug/ml -1.9909
[3] = target: Purified PCSK9 carrying a C-terminal FLAG tag (UniProt Q8NBP7); experiment: as above; remark: listed apart in the source
[4] = target: Purified PCSK9 carrying a C-terminal FLAG tag (UniProt Q8NBP7); experiment: AlphaScreen PCSK9-FLAG/His-LDLR; log[antibody] ug/ml -0.08241
[5] = target: Purified PCSK9 carrying a C-terminal FLAG tag (UniProt Q8NBP7); experiment: AlphaScreen PCSK9-FLAG/His-LDLR; log[antibody] ug/ml -0.55953
[6] = target: Purified PCSK9 carrying a C-terminal FLAG tag (UniProt Q8NBP7); experiment: AlphaScreen PCSK9-FLAG/His-LDLR; log[antibody] ug/ml -1.03665
[7] = target: Purified PCSK9 carrying a C-terminal FLAG tag (UniProt Q8NBP7); experiment: AlphaScreen PCSK9-FLAG/His-LDLR; log[antibody] ug/ml -1.51377
[8] = target: Purified PCSK9 carrying a C-terminal FLAG tag (UniProt Q8NBP7); experiment: AlphaScreen PCSK9-FLAG/His-LDLR; log[antibody] ug/ml -2.46802
[9] = target: Purified PCSK9 carrying a C-terminal FLAG tag (UniProt Q8NBP7); experiment: AlphaScreen PCSK9-FLAG/His-LDLR; log[antibody] ug/ml 0.394711
[10] = target: Purified PCSK9 carrying a C-terminal FLAG tag (UniProt Q8NBP7); experiment: AlphaScreen PCSK9-FLAG/His-LDLR; log[antibody] ug/ml 0.871832
[11] = target: Purified PCSK9 carrying a C-terminal FLAG tag (UniProt Q8NBP7); experiment: AlphaScreen PCSK9-FLAG/His-LDLR; log[antibody] ug/ml 1.348954
[12] = target: Purified PCSK9 carrying a C-terminal FLAG tag (UniProt Q8NBP7); experiment: AlphaScreen PCSK9-FLAG/His-LDLR; log[antibody] ug/ml 1.826075
[13] = target: Purified PCSK9 carrying a C-terminal FLAG tag (UniProt Q8NBP7); experiment: AlphaScreen PCSK9-FLAG/His-LDLR; log[antibody] ug/ml -0.08241; remark: listed apart in the source
[14] = target: Purified PCSK9 carrying a C-terminal FLAG tag (UniProt Q8NBP7); experiment: AlphaScreen PCSK9-FLAG/His-LDLR; log[antibody] ug/ml -0.55953; remark: listed apart in the source
[15] = target: Purified PCSK9 carrying a C-terminal FLAG tag (UniProt Q8NBP7); experiment: AlphaScreen PCSK9-FLAG/His-LDLR; log[antibody] ug/ml -1.03665; remark: listed apart in the source
[16] = target: Purified PCSK9 carrying a C-terminal FLAG tag (UniProt Q8NBP7); experiment: AlphaScreen PCSK9-FLAG/His-LDLR; log[antibody] ug/ml -1.51377; remark: listed apart in the source
[17] = target: Purified PCSK9 carrying a C-terminal FLAG tag (UniProt Q8NBP7); experiment: AlphaScreen PCSK9-FLAG/His-LDLR; log[antibody] ug/ml -2.46802; remark: listed apart in the source
[18] = target: Purified PCSK9 carrying a C-terminal FLAG tag (UniProt Q8NBP7); experiment: AlphaScreen PCSK9-FLAG/His-LDLR; log[antibody] ug/ml -2.94514
[19] = target: Purified PCSK9 carrying a C-terminal FLAG tag (UniProt Q8NBP7); experiment: AlphaScreen PCSK9-FLAG/His-LDLR; log[antibody] ug/ml 0.394711; remark: listed apart in the source
[20] = target: Purified PCSK9 carrying a C-terminal FLAG tag (UniProt Q8NBP7); experiment: AlphaScreen PCSK9-FLAG/His-LDLR; log[antibody] ug/ml 0.871832; remark: listed apart in the source
[21] = target: Purified PCSK9 carrying a C-terminal FLAG tag (UniProt Q8NBP7); experiment: AlphaScreen PCSK9-FLAG/His-LDLR; log[antibody] ug/ml 1.348954; remark: listed apart in the source
[22] = target: Purified PCSK9 carrying a C-terminal FLAG tag (UniProt Q8NBP7); experiment: AlphaScreen PCSK9-FLAG/His-LDLR; log[antibody] ug/ml 1.826075; remark: listed apart in the source
[23] = target: Purified PCSK9 carrying a C-terminal FLAG tag (UniProt Q8NBP7); experiment: AlphaScreen PCSK9-FLAG/His-LDLR; non-specific control; log[antibody] ug/ml -1.9909
[24] = target: Purified PCSK9 carrying a C-terminal FLAG tag (UniProt Q8NBP7); experiment: as above; remark: listed apart in the source
[25] = target: Purified PCSK9 carrying a C-terminal FLAG tag (UniProt Q8NBP7); experiment: AlphaScreen PCSK9-FLAG/His-LDLR; non-specific control; log[antibody] ug/ml -0.08241
[26] = target: Purified PCSK9 carrying a C-terminal FLAG tag (UniProt Q8NBP7); experiment: AlphaScreen PCSK9-FLAG/His-LDLR; non-specific control; log[antibody] ug/ml -0.55953
[27] = target: Purified PCSK9 carrying a C-terminal FLAG tag (UniProt Q8NBP7); experiment: AlphaScreen PCSK9-FLAG/His-LDLR; non-specific control; log[antibody] ug/ml -1.03665
[28] = target: Purified PCSK9 carrying a C-terminal FLAG tag (UniProt Q8NBP7); experiment: AlphaScreen PCSK9-FLAG/His-LDLR; non-specific control; log[antibody] ug/ml -1.51377
[29] = target: Purified PCSK9 carrying a C-terminal FLAG tag (UniProt Q8NBP7); experiment: AlphaScreen PCSK9-FLAG/His-LDLR; non-specific control; log[antibody] ug/ml -2.46802
[30] = target: Purified PCSK9 carrying a C-terminal FLAG tag (UniProt Q8NBP7); experiment: AlphaScreen PCSK9-FLAG/His-LDLR; non-specific control; log[antibody] ug/ml 0.394711
[31] = target: Purified PCSK9 carrying a C-terminal FLAG tag (UniProt Q8NBP7); experiment: AlphaScreen PCSK9-FLAG/His-LDLR; non-specific control; log[antibody] ug/ml 0.871832
[32] = target: Purified PCSK9 carrying a C-terminal FLAG tag (UniProt Q8NBP7); experiment: AlphaScreen PCSK9-FLAG/His-LDLR; non-specific control; log[antibody] ug/ml 1.348954
[33] = target: Purified PCSK9 carrying a C-terminal FLAG tag (UniProt Q8NBP7); experiment: AlphaScreen PCSK9-FLAG/His-LDLR; non-specific control; log[antibody] ug/ml 1.826075
[34] = target: Purified PCSK9 carrying a C-terminal FLAG tag (UniProt Q8NBP7); experiment: AlphaScreen PCSK9-FLAG/His-LDLR; non-specific control; log[antibody] ug/ml -0.08241; remark: listed apart in the source
[35] = target: Purified PCSK9 carrying a C-terminal FLAG tag (UniProt Q8NBP7); experiment: AlphaScreen PCSK9-FLAG/His-LDLR; non-specific control; log[antibody] ug/ml -0.55953; remark: listed apart in the source
[36] = target: Purified PCSK9 carrying a C-terminal FLAG tag (UniProt Q8NBP7); experiment: AlphaScreen PCSK9-FLAG/His-LDLR; non-specific control; log[antibody] ug/ml -1.03665; remark: listed apart in the source
[37] = target: Purified PCSK9 carrying a C-terminal FLAG tag (UniProt Q8NBP7); experiment: AlphaScreen PCSK9-FLAG/His-LDLR; non-specific control; log[antibody] ug/ml -1.51377; remark: listed apart in the source
[38] = target: Purified PCSK9 carrying a C-terminal FLAG tag (UniProt Q8NBP7); experiment: AlphaScreen PCSK9-FLAG/His-LDLR; non-specific control; log[antibody] ug/ml -2.46802; remark: listed apart in the source
[39] = target: Purified PCSK9 carrying a C-terminal FLAG tag (UniProt Q8NBP7); experiment: AlphaScreen PCSK9-FLAG/His-LDLR; non-specific control; log[antibody] ug/ml -2.94514
[40] = target: Purified PCSK9 carrying a C-terminal FLAG tag (UniProt Q8NBP7); experiment: AlphaScreen PCSK9-FLAG/His-LDLR; non-specific control; log[antibody] ug/ml 0.394711; remark: listed apart in the source
[41] = target: Purified PCSK9 carrying a C-terminal FLAG tag (UniProt Q8NBP7); experiment: AlphaScreen PCSK9-FLAG/His-LDLR; non-specific control; log[antibody] ug/ml 0.871832; remark: listed apart in the source
[42] = target: Purified PCSK9 carrying a C-terminal FLAG tag (UniProt Q8NBP7); experiment: AlphaScreen PCSK9-FLAG/His-LDLR; non-specific control; log[antibody] ug/ml 1.348954; remark: listed apart in the source
[43] = target: Purified PCSK9 carrying a C-terminal FLAG tag (UniProt Q8NBP7); experiment: AlphaScreen PCSK9-FLAG/His-LDLR; non-specific control; log[antibody] ug/ml 1.826075; remark: listed apart in the source
[44] = target: T1, Purified PCSK9 carrying a C-terminal FLAG tag (UniProt Q8NBP7 31-692); experiment: AlphaScreen, inhibition of PCSK9-Flag/His-tagged LDL receptor interaction; average of two measurements
T1 construct: also called PCSK9-FLAG; PCSK9-Flag; not shown: C-terminal FLAG tag
T1 sequence (Q8NBP7 31-692 limits assumed): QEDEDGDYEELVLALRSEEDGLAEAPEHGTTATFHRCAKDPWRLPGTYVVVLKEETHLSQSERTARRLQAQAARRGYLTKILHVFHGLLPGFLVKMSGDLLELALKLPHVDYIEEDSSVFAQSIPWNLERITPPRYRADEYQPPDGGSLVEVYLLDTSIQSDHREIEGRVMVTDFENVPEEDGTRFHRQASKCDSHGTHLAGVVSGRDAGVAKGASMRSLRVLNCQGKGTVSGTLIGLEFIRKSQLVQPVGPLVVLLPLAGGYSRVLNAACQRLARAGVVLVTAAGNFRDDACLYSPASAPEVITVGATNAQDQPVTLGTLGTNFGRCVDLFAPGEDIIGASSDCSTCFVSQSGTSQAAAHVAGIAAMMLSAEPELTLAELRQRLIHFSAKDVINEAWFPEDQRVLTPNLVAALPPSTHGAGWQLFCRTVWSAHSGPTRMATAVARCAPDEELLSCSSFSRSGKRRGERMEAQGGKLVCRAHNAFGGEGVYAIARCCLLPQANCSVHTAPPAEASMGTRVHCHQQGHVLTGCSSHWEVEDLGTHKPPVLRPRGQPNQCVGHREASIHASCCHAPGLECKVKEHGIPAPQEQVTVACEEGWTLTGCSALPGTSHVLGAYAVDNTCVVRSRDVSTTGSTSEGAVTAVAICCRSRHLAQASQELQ
Protocol: This technique required that “donor” and “acceptor” beads be brought into proximity via protein—protein interaction, resulting in increased luminescence (Ullman et al., Proc. Nat. Acad. Sci. (1994) 91:5426-5430). […] About 2.5 μl of biotinylated anti-Flag-M2 antibody (1.8 μg/ml) was added and the mixture incubated for 1 hour. Afterward 5 μl of streptavidin donor bead and nickel chelate acceptor bead (1:1 mixture) was added and the assay incubated overnight. AlphaScreen signal (counts per second) was analyzed using an EnVision microplate reader (Perkin-Elmer). All data points were determined in triplicate. Assays were carried out at 23° C. in buffer containing 25 mM HEPES, 0.1 M NaCl, pH 7.4, 0.1% BSA. The inhibition assays were determined similarly with slight adjustments to assay volumes and protein concentrations.

bacu-PCSK9-WT, sequence (Q8NBP7 31-692 limits assumed): as above
Purified PCSK9 carrying a C-terminal FLAG tag (UniProt Q8NBP7), sequence (Q8NBP7 31-692 limits assumed): as above

Molecule: Rabbit anti-murine-PCSK9 polyclonal antibody, Cayman Chemical Cat.#10008811 (anti-PCSK9-catalytic domain antibody)
- DiI-LDL uptake by HepG2 cells, 6 hour incubation, [PCSK9] 1.67 ug/ml, antibody 100 ug/ml (fluorescence intensity) [1]: 2.95e+07
- DiI-LDL uptake by HepG2 cells, 6 hour incubation, [PCSK9] 5 ug/ml, antibody 100 ug/ml (fluorescence intensity) [1]: 2.56e+07
- DiI-LDL uptake by HepG2 cells, 6 hour incubation, [PCSK9] 15 ug/ml, antibody 100 ug/ml (fluorescence intensity) [1]: 2.24e+07
- DiI-LDL uptake by HepG2 cells, 18 hour incubation, [PCSK9] 1.67 ug/ml, antibody 100 ug/ml (fluorescence intensity) [1]: 3.2e+07
- DiI-LDL uptake by HepG2 cells, 18 hour incubation, [PCSK9] 5 ug/ml, antibody 100 ug/ml (fluorescence intensity) [1]: 2.59e+07
- DiI-LDL uptake by HepG2 cells, 18 hour incubation, [PCSK9] 15 ug/ml, antibody 100 ug/ml (fluorescence intensity) [1]: 2.18e+07
- AlphaScreen mean counts [2]: 130000 counts
- AlphaScreen mean counts [3]: 81500 counts
- AlphaScreen mean counts [4]: 94800 counts
- AlphaScreen mean counts [5]: 128000 counts
- AlphaScreen mean counts [6]: 124000 counts
- AlphaScreen mean counts [7]: 126000 counts
- AlphaScreen mean counts [8]: 132000 counts
- AlphaScreen mean counts [9]: 93500 counts
- AlphaScreen mean counts [10]: 55600 counts
- AlphaScreen mean counts [11]: 25800 counts
- AlphaScreen mean counts [12]: 6840 counts
- AlphaScreen mean counts [13]: 70000 counts
- AlphaScreen mean counts [14]: 77400 counts
- AlphaScreen mean counts [15]: 79800 counts
- AlphaScreen mean counts [16]: 85600 counts
- AlphaScreen mean counts [17]: 80600 counts
- AlphaScreen mean counts [18]: 85400 counts
- AlphaScreen mean counts [19]: 60100 counts
- AlphaScreen mean counts [20]: 33300 counts
- AlphaScreen mean counts [21]: 12300 counts
- AlphaScreen mean counts [22]: 2100 counts

Molecule: non-specific IgG control (antibody)
- AlphaScreen mean counts [23]: 135000 counts
- AlphaScreen mean counts [24]: 80700 counts
- AlphaScreen mean counts [25]: 140000 counts
- AlphaScreen mean counts [26]: 139000 counts
- AlphaScreen mean counts [27]: 127000 counts
- AlphaScreen mean counts [28]: 134000 counts
- AlphaScreen mean counts [29]: 140000 counts
- AlphaScreen mean counts [30]: 136000 counts
- AlphaScreen mean counts [31]: 140000 counts
- AlphaScreen mean counts [32]: 135000 counts
- AlphaScreen mean counts [33]: 114000 counts
- AlphaScreen mean counts [34]: 82800 counts
- AlphaScreen mean counts [35]: 88100 counts
- AlphaScreen mean counts [36]: 84400 counts
- AlphaScreen mean counts [37]: 83100 counts
- AlphaScreen mean counts [38]: 78200 counts
- AlphaScreen mean counts [39]: 82100 counts
- AlphaScreen mean counts [40]: 79600 counts
- AlphaScreen mean counts [41]: 79600 counts
- AlphaScreen mean counts [42]: 74400 counts
- AlphaScreen mean counts [43]: 61900 counts

B1: 1F11/1G11 anti-PCSK9 antibody (IgG2a) (antibody, V domains shown)
VH: EVQLQQSGPELVKPGASVKISCKVSGYTFTDYYMNWVKQSHGKSLEWIGDINPNNGGAIYNQKFKGKATLTVDKSSSIAYMELRSLTSEDSAVYYCTSGIITEIAEDFWGQGTTLTVSS
VL: DIVMTQSQKFMSTSVGDRVSVTCKASQNVGTNVVWYQQKPGQSPKALIHSASYRYSGVPDRFKGSGSGTDFTLTITNVQSEDLAGFFCQQYKTYPYTFGGGTQLEIKR
notes: also called anti-human PCSK9 Antibody, 1F11/1G11
- IC50 [44]: 0.049 nM
